One protein from ChEMBL document CHEMBL2074013, “Effect of 17 beta-estradiol-D-17 beta-glucuronide on the rat organic anion transporting polypeptide 2-mediated transport differs depending on substrates” (Drug Metab Dispos, 2002) can be followed below.

Substrate in this data set: C[C@H]1O[C@@H](O[C@H]2[C@@H](O)C[C@H](O[C@H]3[C@@H](O)C[C@H](O[C@H]4CC[C@@]5(C)[C@H](CC[C@@H]6[C@@H]5C[C@@H](O)[C@]5(C)[C@@H](C7=CC(=O)OC7)CC[C@]65O)C4)O[C@@H]3C)O[C@@H]2C)C[C@H](O)[C@@H]1O
As to the kind of experiment: cells, lysate or membranes named.

Description: TP_TRANSPORTER: uptake in Oatp2-expressing LLC-PK1 cells

B1: Solute carrier organic anion transporter family member 1A4 (Rattus norvegicus) (protein)
chain: MGKSEKRVATHGVRCFAKIKMFLLALTCAYVSKSLSGTYMNSMLTQIERQFGIPTSIVGLINGSFEIGNLLLIIFVSYFGTKLHRPIMIGVGCAVMGLGCFLISLPHFLMGQYEYETILPTSNVSSNSFFCVENRSQTLNPTQDPSECVKEMKSLMWIYVLVGNIIRGIGETPIMPLGISYIEDFAKSENSPLYIGILETGMTIGPLIGLLLASSCANIYVDIESVNTDDLTITPTDTRWVGAWWIGFLVCAGVNILTSFPFFFFPKTLPKEGLQENVDGTENAKEKKHRKKAKEEKRGITKDFFVFMKSLSCNPIYMLFILISVLQFNAFINSFTFMPKYLEQQYGKSTAEVVFLMGLYMLPPICLGYLIGGLIMKKFKVTVKKAAHLAFWLCLSEYLLSFLSYVMTCDNFPVAGLTTSYEGVQHQLYVENKVLADCNTRCNCSTNTWDPVCGDNGLAYMSACLAGCEKSVGTGTNMVFQNCSCIQSSGNSSAVLGLCNKGPDCANKLQYFLIIAIFGCFIYSLAGIPGYMVLLRCIKSEEKSLGVGLHAFCIRILAGIPAPIYFGALIDRTCLHWGTLKCGEPGACRMYDINSFRRLYLGLPAALRGASFVPAFFILRLTRTFQFPGDIESSKTDHAEMKLTLKESECTEVLRSKVTED
For orientation: Km means the substrate concentration at which the rate is half of its maximum. As for B1, the Km was 1.07 µM.
